These results are taken from patent US20230416346.

Data set [1] addresses recombinant human full-length SPARC (R&D Systems) (UniProt P09486).
Data set [2] concerns the target human SPARC secreted by human mammary fibroblasts (HMFs) (UniProt P09486).

Chain of auto-activated 51-kDa pseudo-cath-D (recombinant human cathepsin D) (chain, as listed by the source): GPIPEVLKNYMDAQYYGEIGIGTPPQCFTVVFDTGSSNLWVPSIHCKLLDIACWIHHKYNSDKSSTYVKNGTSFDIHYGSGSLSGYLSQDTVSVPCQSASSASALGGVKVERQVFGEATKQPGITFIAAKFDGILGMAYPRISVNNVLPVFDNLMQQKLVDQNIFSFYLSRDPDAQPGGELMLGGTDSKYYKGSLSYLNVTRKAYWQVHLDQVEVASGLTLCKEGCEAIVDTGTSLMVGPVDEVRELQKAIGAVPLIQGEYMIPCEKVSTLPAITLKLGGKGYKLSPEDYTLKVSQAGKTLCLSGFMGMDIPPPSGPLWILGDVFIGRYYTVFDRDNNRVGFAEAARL
Chain of human cath-D secreted by TNBC cells (MDA-MB-231) (chain, as listed by the source): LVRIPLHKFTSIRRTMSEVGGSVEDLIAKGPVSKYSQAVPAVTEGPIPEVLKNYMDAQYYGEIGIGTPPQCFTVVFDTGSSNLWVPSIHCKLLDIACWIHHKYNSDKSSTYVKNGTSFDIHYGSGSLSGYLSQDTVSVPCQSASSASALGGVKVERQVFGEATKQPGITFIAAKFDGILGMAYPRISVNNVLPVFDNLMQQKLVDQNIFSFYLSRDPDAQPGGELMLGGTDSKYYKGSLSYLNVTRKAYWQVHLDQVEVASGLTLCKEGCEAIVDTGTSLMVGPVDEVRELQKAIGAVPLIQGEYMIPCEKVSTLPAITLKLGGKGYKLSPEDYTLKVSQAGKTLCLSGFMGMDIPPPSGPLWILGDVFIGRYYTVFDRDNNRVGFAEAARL
Chain of recombinant human full-length SPARC (R&D Systems) (P09486 18-303): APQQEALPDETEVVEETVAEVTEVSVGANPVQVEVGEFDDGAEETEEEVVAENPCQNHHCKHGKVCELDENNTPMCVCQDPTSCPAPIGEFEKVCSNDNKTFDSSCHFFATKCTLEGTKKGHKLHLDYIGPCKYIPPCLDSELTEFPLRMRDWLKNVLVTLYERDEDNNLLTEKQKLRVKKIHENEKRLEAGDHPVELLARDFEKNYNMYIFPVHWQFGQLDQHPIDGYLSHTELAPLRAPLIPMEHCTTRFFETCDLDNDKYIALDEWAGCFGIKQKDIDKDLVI
Chain of human SPARC secreted by human mammary fibroblasts (HMFs) (P09486 18-303): as above

With “auto-activated 51-kDa pseudo-cath-D (recombinant human cathepsin D)”, in data set [1], the ATOMS ratio (Pseudo-cathD + SPARC - pepst./Pseudo-cath-D + SPARC + pepst), peptide DQHPIDGYLSHTELAPLR [239-256], trypsin was 8.4; the ATOMS ratio (Pseudo-cathD + SPARC - pepst./Pseudo-cath-D + SPARC + pepst), peptide EAGDHPVELLAR [207-218], trypsin came out at 11.3; the ATOMS ratio (Pseudo-cathD + SPARC - pepst./Pseudo-cath-D + SPARC + pepst), peptide FGQLDQHPIDGYLSHTELAPLR [235-256], trypsin was determined as 10.6; the ATOMS ratio (Pseudo-cathD + SPARC - pepst./Pseudo-cath-D + SPARC + pepst), peptide GQLDQHPIDGYLSHTELAPLR [236-256], trypsin stood at 2. In data set [1], the ATOMS ratio (Pseudo-cathD + SPARC - pepst./Pseudo-cath-D + SPARC + pepst), peptide PLIPMEHCTTR [258-268], trypsin stood at 22.5; the ATOMS ratio (Pseudo-cathD + SPARC - pepst./Pseudo-cath-D + SPARC + pepst), peptide QLDQHPIDGYLSHTELAPLR [237-256], trypsin was 3.5; the ATOMS ratio (Pseudo-cathD + SPARC - pepst./Pseudo-cath-D + SPARC + pepst), peptide SHTELAPLR [248-256], trypsin was found to be 2.7; the ATOMS ratio (Pseudo-cathD + SPARC - pepst./Pseudo-cath-D + SPARC + pepst), peptide VTLYERDEDNNLLTEK [176-191], trypsin stood at 12.1. For the same substance, in data set [1], the ATOMS ratio (Pseudo-cathD + SPARC - pepst./Pseudo-cath-D + SPARC + pepst), peptide YERDEDNNLLTEK [179-191], trypsin stood at 13.7; the ATOMS ratio (Pseudo-cathD + SPARC - pepst./Pseudo-cath-D + SPARC + pepst), peptide YERDEDNNLLTEKQK [179-193], trypsin worked out at 21.1; the ATOMS ratio (Pseudo-cathD + SPARC - pepst./Pseudo-cath-D + SPARC + pepst), peptide YLSHTELAPLR [246-256], trypsin is 18.8; the “SPARC cleavage at pH 5.9, ATOMS and silver staining” value was “SPARC was hydrolysed by the 51-kDa cath-D form exclusively in its extracellular Ca2+ binding domain, releasing five main SPARC fragments (34-, 27, 16, 9-, and 6-kDa) at pH 5.9”. In addition, in data set [1], the “SPARC cleavage, pH dependence (6.8 to 5.5), SDS-PAGE and immunoblot” value is “experiments in which pH was gradually reduced from 6.8 to 5.5 showed progressive limited proteolysis of SPARC at lower pH”; the “SPARC cleavage, time course at pH 5.9, SDS-PAGE and immunoblot” value is reported as “At pH 5.9, SPARC was hydrolysed by cath-D in a time-dependent manner”.
For the substance “fully-mature cath-D (34+14-kDa) (recombinant human cathepsin D)”, in data set [1], the ATOMS ratio (Mature cath-D + SPARC - pepst./Mature cath-D + SPARC + pepst.), peptide DQHPIDGYLSHTELAPLR [239-256], trypsin stood at 8.1; the ATOMS ratio (Mature cath-D + SPARC - pepst./Mature cath-D + SPARC + pepst.), peptide DWLKNVLVTLYER [169-181], trypsin worked out at 0.5; the ATOMS ratio (Mature cath-D + SPARC - pepst./Mature cath-D + SPARC + pepst.), peptide EAGDHPVELLAR [207-218], trypsin was 19.3; the ATOMS ratio (Mature cath-D + SPARC - pepst./Mature cath-D + SPARC + pepst.), peptide FGQLDQHPIDGYLSHTELAPLR [235-256], trypsin turned out to be 5.9. Moreover, in data set [1], the ATOMS ratio (Mature cath-D + SPARC - pepst./Mature cath-D + SPARC + pepst.), peptide GQLDQHPIDGYLSHTELAPLR [236-256], trypsin came out at 2.3; the ATOMS ratio (Mature cath-D + SPARC - pepst./Mature cath-D + SPARC + pepst.), peptide LDSELTEFPLR [156-166], trypsin was 0.4; the ATOMS ratio (Mature cath-D + SPARC - pepst./Mature cath-D + SPARC + pepst.), peptide LSHTELAPLR [247-256], trypsin is 2.4; the ATOMS ratio (Mature cath-D + SPARC - pepst./Mature cath-D + SPARC + pepst.), peptide PLIPMEHCTTR [258-268], trypsin came to 4.3. For the same substance, in data set [1], the ATOMS ratio (Mature cath-D + SPARC - pepst./Mature cath-D + SPARC + pepst.), peptide PVHWQFGQLDQHPIDGYLSHTELAPLR [230-256], trypsin worked out at 5.6; the ATOMS ratio (Mature cath-D + SPARC - pepst./Mature cath-D + SPARC + pepst.), peptide QLDQHPIDGYLSHTELAPLR [237-256], trypsin is 2.2; the ATOMS ratio (Mature cath-D + SPARC - pepst./Mature cath-D + SPARC + pepst.), peptide SHTELAPLR [248-256], trypsin came to 1.6; the ATOMS ratio (Mature cath-D + SPARC - pepst./Mature cath-D + SPARC + pepst.), peptide VTLYERDEDNNLLTEK [176-191], trypsin was 14.3. Moreover, in data set [1], the ATOMS ratio (Mature cath-D + SPARC - pepst./Mature cath-D + SPARC + pepst.), peptide WQFGQLDQHPIDGYLSHTELAPLR [233-256], trypsin is 3.1; the ATOMS ratio (Mature cath-D + SPARC - pepst./Mature cath-D + SPARC + pepst.), peptide YERDEDNNLLTEK [179-191], trypsin was 11.8; the ATOMS ratio (Mature cath-D + SPARC - pepst./Mature cath-D + SPARC + pepst.), peptide YERDEDNNLLTEKQK [179-193], trypsin came to 16.8; the ATOMS ratio (Mature cath-D + SPARC - pepst./Mature cath-D + SPARC + pepst.), peptide YLSHTELAPLR [246-256], trypsin was found to be 5.7. Besides, in data set [1], the “SPARC cleavage at pH 5.9, ATOMS and silver staining” value is on record as “We detected SPARC cleavage fragments of similar size also after incubation with the fully mature 34+14-kDa cath-D form at pH 5.9”.
As for “human cath-D secreted by TNBC cells (MDA-MB-231)”, in data set [2], the “SPARC cleavage in MDA-MB-231/HMF conditioned medium at pH 5.5, immunoblot” value is “SPARC was hydrolysed in a time-dependent manner in the conditioned medium at pH 5.5”; the “SPARC cleavage in MDA-MB-231/HMF conditioned medium at pH 6.8 to 5.5, immunoblot” value was “in the MDA-MB-231/HMF conditioned medium, SPARC was significantly degraded up to pH 6.2”; the TAILS ratio (CM - pepst./CM + pepst.), peptide DQHPIDGYLSHTELAPLR [239-256], trypsin worked out at 7.6; the TAILS ratio (CM - pepst./CM + pepst.), peptide EAGDHPVELLAR [207-218], trypsin is 3.4. Further, in data set [2], the TAILS ratio (CM - pepst./CM + pepst.), peptide GQLDQHPIDGYLSHTELAPLR [236-256], trypsin worked out at 12.4; the TAILS ratio (CM - pepst./CM + pepst.), peptide PLIPMEHCTTR [258-268], trypsin was 5.9; the TAILS ratio (CM - pepst./CM + pepst.), peptide QLDQHPIDGYLSHTELAPLR [237-256], trypsin stood at 15.1; the TAILS ratio (CM - pepst./CM + pepst.), peptide YLSHTELAPLR [246-256], trypsin is 4.4.
